Results as given in the supplement of paper PMC10065799, “High-throughput profiling of sequence recognition by tyrosine kinases and SH2 domains using bacterial peptide display” (eLife, 2023).

Tests used:
EPHB2 = EPHB2 (UniProt P29323); test: phosphorylation enrichment, bacterial display (enrichment ratio); higher = better substrate or ligand; peptides without Tyr show the background
AncSZ = test: as above
c-Src = test: as above
MERTK = MERTK (UniProt Q12866); test: as above
EPHB1 = EPHB1 (UniProt P54762); test: as above
c-Abl (mouse) = test: as above
Jak2 = Jak2 (UniProt O60674); test: as above
Hck = Hck (UniProt P08631); test: as above
Hck, sequence (P08631 whole entry, looked up): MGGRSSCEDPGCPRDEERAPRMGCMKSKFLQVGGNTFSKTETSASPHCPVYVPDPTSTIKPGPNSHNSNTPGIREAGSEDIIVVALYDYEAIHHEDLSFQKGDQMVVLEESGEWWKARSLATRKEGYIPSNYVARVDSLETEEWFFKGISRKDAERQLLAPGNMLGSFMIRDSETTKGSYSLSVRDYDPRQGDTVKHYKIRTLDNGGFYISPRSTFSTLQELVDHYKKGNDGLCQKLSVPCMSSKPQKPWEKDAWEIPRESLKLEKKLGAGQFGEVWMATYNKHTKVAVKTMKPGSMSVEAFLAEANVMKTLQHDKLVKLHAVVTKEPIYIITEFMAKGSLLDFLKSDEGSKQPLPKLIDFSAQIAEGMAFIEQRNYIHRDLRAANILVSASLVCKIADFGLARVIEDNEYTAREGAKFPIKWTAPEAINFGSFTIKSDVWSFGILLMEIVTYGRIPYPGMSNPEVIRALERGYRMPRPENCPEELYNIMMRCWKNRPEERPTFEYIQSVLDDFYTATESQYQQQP

Fes = Fes (UniProt P07332); test: as above
Fes, sequence (P07332 whole entry, looked up): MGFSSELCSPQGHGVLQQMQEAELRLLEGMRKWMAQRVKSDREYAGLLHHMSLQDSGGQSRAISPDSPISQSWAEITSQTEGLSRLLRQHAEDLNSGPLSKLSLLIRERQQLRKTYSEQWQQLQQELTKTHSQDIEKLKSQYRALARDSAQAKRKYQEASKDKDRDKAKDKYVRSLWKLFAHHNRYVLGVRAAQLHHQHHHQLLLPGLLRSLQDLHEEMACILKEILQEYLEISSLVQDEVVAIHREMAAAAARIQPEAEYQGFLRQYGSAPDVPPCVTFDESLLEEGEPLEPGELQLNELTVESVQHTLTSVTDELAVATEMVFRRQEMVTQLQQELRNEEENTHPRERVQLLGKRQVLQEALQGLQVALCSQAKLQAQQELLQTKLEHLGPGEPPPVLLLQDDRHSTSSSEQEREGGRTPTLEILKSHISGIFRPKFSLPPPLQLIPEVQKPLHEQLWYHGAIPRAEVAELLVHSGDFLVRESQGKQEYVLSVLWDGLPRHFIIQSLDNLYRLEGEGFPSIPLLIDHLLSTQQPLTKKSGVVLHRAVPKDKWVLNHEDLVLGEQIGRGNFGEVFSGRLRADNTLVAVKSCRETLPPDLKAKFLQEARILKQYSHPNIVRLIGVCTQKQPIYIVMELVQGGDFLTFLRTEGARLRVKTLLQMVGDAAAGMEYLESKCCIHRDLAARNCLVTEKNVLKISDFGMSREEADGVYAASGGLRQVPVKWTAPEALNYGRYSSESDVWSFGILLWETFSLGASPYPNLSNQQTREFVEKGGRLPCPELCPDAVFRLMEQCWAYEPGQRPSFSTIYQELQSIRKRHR

Fyn = Fyn (UniProt P06241); test: as above
Fyn, sequence (P06241 whole entry, looked up): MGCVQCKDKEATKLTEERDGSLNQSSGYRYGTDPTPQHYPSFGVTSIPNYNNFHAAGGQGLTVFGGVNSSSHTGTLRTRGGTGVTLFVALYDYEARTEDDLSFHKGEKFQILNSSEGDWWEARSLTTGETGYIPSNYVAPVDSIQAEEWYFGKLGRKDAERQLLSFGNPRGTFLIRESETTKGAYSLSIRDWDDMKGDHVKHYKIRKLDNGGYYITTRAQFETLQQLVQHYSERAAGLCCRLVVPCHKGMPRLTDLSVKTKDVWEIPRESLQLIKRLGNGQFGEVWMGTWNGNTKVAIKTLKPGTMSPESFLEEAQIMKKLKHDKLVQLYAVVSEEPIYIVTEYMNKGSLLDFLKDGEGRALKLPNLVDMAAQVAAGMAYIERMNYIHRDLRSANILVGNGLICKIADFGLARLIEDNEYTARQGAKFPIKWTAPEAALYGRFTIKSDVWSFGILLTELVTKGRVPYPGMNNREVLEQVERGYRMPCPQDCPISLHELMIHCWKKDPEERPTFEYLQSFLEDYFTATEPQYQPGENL

Fer (mouse) = test: as above
FGFR1 = FGFR1 (UniProt P11362); test: as above
FGFR1, sequence (P11362 whole entry, looked up): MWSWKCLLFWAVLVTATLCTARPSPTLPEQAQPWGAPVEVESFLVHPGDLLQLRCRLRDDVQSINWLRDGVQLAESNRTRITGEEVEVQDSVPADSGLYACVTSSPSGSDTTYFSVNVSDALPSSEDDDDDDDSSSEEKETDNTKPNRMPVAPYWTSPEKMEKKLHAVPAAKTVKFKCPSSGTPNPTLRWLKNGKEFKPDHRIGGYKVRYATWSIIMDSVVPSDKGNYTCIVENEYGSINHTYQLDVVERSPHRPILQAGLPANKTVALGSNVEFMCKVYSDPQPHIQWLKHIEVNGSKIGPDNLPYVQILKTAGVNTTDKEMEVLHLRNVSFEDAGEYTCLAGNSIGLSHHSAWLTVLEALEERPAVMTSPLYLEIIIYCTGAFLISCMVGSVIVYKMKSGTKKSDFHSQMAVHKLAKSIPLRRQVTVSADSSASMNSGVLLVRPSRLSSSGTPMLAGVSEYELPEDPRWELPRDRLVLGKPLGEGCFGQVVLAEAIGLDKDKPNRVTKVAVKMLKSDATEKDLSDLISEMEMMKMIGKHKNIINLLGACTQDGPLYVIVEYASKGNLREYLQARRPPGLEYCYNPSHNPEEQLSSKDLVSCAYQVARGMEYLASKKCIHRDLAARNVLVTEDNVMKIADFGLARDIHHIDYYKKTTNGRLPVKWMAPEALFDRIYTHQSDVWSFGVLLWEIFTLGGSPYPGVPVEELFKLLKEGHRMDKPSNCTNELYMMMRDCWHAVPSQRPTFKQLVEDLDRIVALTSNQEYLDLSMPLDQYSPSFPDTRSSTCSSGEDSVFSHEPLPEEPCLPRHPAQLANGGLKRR

FGFR3 = FGFR3 (UniProt P22607); test: as above
SHP2-C SH2 = test: SH2 binding enrichment of the phosphorylated peptide, bacterial display (enrichment ratio); higher = better substrate or ligand; peptides without Tyr show the background
c-Src SH2 = test: as above
Grb2 SH2 = Grb2 SH2 (UniProt P62993); test: as above
Grb2 SH2, sequence (P62993 whole entry, looked up, the tested form may be a part): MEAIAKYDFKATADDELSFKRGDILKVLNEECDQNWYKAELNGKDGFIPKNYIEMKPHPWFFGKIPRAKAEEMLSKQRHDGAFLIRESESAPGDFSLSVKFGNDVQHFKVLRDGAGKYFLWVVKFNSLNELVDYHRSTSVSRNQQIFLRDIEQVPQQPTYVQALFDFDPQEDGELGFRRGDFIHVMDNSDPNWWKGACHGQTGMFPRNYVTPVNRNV
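For SH2 binding enrichment of the phosphorylated peptide, bacterial display in this document: peptide library displayed on the E. coli surface as eCPX fusions, selected cells deep-sequenced, score is each peptide's frequency after selection divided by its frequency in the input.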
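For phosphorylation enrichment, bacterial display in this document: 11-residue human phosphosite peptides and single-mutation variants displayed on the E. coli surface, counted by deep sequencing, each peptide's frequency after selection divided by its frequency in the unselected input library; frequency after pTyr selection over input frequency; kinase dosed for 20-30% of maximal phosphorylation in three min.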

MERTK, sequence (Q12866 whole entry, looked up): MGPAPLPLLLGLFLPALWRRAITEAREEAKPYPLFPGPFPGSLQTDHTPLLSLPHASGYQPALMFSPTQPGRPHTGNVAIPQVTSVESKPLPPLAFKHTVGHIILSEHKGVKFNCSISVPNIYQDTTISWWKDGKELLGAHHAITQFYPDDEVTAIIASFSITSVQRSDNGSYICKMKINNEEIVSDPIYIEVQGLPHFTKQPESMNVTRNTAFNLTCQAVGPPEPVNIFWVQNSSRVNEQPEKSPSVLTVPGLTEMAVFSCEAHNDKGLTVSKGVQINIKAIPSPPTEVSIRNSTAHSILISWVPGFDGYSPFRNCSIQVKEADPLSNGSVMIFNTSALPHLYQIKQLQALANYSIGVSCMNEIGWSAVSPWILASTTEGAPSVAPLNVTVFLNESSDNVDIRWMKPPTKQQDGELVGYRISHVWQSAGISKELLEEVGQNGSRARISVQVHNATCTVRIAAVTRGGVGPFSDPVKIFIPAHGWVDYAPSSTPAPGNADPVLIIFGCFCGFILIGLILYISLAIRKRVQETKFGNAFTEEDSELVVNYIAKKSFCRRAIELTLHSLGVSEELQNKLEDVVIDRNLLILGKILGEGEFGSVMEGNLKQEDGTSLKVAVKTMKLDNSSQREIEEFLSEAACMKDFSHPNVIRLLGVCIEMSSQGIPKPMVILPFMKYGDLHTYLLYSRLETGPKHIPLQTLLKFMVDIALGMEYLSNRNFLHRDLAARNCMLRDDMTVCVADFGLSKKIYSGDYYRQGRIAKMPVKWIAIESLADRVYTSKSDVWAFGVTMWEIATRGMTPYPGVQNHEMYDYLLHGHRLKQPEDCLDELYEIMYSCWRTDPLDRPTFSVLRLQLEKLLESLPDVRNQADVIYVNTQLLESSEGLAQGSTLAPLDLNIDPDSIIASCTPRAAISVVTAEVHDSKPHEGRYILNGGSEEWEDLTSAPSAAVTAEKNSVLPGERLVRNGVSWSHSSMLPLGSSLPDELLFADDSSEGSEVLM
EPHB2, sequence (P29323 whole entry, looked up): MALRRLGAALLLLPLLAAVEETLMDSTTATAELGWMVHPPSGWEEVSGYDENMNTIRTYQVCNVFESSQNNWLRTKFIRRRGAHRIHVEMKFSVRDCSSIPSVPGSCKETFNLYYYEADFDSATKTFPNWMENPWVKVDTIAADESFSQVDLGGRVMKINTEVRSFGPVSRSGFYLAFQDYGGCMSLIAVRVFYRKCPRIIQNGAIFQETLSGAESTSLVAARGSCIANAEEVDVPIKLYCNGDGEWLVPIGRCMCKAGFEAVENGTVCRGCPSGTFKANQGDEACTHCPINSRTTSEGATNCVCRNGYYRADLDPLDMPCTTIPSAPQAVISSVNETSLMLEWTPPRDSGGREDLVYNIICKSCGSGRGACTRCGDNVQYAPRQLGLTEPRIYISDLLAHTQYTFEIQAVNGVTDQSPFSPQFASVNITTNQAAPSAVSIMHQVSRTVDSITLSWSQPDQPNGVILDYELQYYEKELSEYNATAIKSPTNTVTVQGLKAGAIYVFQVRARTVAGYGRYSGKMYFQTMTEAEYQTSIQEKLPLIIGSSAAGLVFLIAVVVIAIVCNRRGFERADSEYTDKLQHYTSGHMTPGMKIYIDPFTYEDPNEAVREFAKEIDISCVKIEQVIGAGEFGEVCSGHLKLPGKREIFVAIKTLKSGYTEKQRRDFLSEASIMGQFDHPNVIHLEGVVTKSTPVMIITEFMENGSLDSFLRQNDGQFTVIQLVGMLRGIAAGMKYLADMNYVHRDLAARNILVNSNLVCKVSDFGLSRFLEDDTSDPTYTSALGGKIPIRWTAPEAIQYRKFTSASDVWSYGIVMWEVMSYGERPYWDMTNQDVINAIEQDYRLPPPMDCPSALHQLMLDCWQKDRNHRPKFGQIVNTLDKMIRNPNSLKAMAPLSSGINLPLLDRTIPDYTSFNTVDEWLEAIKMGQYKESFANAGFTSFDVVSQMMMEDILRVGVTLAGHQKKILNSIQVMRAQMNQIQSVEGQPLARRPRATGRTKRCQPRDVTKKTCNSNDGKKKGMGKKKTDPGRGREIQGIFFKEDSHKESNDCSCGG

Sequence | phosphorylation enrichment (EPHB2) | phosphorylation enrichment (AncSZ) | phosphorylation enrichment (c-Src) | phosphorylation enrichment (MERTK) | phosphorylation enrichment (EPHB1) | phosphorylation enrichment (c-Abl (mouse)) | phosphorylation enrichment (Jak2) | phosphorylation enrichment (Hck) | phosphorylation enrichment (Fes) | phosphorylation enrichment (Fyn) | phosphorylation enrichment (Fer (mouse)) | phosphorylation enrichment (FGFR1) | phosphorylation enrichment (FGFR3) | SH2 binding enrichment (SHP2-C SH2) | SH2 binding enrichment (c-Src SH2) | SH2 binding enrichment (Grb2 SH2)
RRIEKYVDQGK [IRAK3_Y61_H57R] | 0.322 | 0.88 | 0.483 | 0.571 | 0.615 | 0.56 | 0.419 | 0.445 | 0.662 | 0.516 | 0.326 | 0.736 | 0.416 | 0.333 | 0.535 | 0.72
RRIHNYRGHLW [VHL_Y112_S111N] | 0.421 | 0.577 | 0.607 | 0.597 | 0.714 | 0.609 | 0.501 | 0.509 | 0.738 | 0.481 | 0.27 | 0.433 | 0.511 | 0.712 | 0.797 | 1.01
RSFLSYFTSHV [NEFL_Y442_P440L_YF] | 0.743 | 1.54 | 0.879 | 0.826 | 0.759 | 1.05 | 1.1 | 0.915 | 1.8 | 0.642 | 0.677 | 0.752 | 1 | 1.3 | 0.697 | 0.893
RSIGEYDVLRG [PRKDC_Y2936] | 0.779 | 0.795 | 0.974 | 0.536 | 0.738 | 1.55 | 0.73 | 3.99 | 0.786 | 0.671 | 0.428 | 0.36 | 0.394 | 0.587 | 1.65 | 0.662
RSRSPYSPVLR [CDK13_Y399] | 0.477 | 0.917 | 0.701 | 0.674 | 0.476 | 0.763 | 0.563 | 0.628 | 0.854 | 0.551 | 0.423 | 1.06 | 0.584 | 1.47 | 0.66 | 1.2
RSRSSYTHSLN [MYCT1_Y116_G119S] | 0.537 | 0.832 | 0.938 | 0.762 | 0.504 | 0.97 | 0.948 | 0.495 | 0.755 | 0.63 | 0.381 | 0.575 | 0.514 | 0.348 | 0.435 | 0.786
RVNSAYQEKVS [ACAN_Y100_D102E] | 0.397 | 0.407 | 0.291 | 0.5 | 0.413 | 0.489 | 0.538 | 0.49 | 0.667 | 0.378 | 0.313 | 0.678 | 0.423 | 0.529 | 0.448 | 1.08
RVSSVYTRSTG [CCR5_Y339_A335V] | 0.867 | 1.18 | 0.853 | 0.665 | 0.945 | 0.873 | 1.02 | 1.13 | 1.22 | 1.1 | 0.984 | 0.936 | 0.945 | 1.1 | 0.517 | 1.17
RYVSRYIYNRE [HLA-DQB1_Y62_T60S] | 0.95 | 1.29 | 1.08 | 0.993 | 0.922 | 0.666 | 0.92 | 0.551 | 1.11 | 0.829 | 0.844 | 0.658 | 0.739 | 0.245 | 0.368 | 0.659
RYVTRSIYNRE [HLA-DQB1_Y62_Y62S] | 0.389 | 0.772 | 0.705 | 0.601 | 0.226 | 0.735 | 1.1 | 0.682 | 1.1 | 0.553 | 0.495 | 0.622 | 0.327 | 0.94 | 0.543 | 0.802
SAAAIYTVRHP [PMP22_Y117] | 0.516 | 0.615 | 6.41 | 1.92 | 0.54 | 0.67 | 0.506 | 7.82 | 0.601 | 5.3 | 0.474 | 0.487 | 0.43 | 0.891 | 0.443 | 0.9
SAASGYSDVTD [DTX2_Y425_T421A] | 0.589 | 0.866 | 0.338 | 0.294 | 0.646 | 0.446 | 0.963 | 0.458 | 0.95 | 0.232 | 0.535 | 0.633 | 0.569 | 0.979 | 6.28 | 1.98
SADIAYNFRHG [PAH_Y166_F161S_YF] | 0.33 | 0.587 | 0.457 | 0.374 | 0.447 | 0.789 | 0.574 | 0.423 | 0.673 | 0.416 | 0.348 | 0.433 | 0.469 | 0.798 | 0.535 | 0.869
SCTFTCLLGDR [ETHE1_Y38_Y38C] | 0.536 | 0.916 | 0.387 | 0.465 | 0.45 | 0.737 | 0.84 | 0.414 | 1.03 | 0.458 | 0.458 | 0.488 | 0.669 | 0.98 | 0.945 | 1.01
SDPIIYTLENV [ADGRE1_Y534_I539V] | 0.576 | 1.1 | 4.92 | 1.09 | 0.5 | 0.723 | 0.945 | 1.61 | 1.38 | 7 | 5.1 | 0.577 | 0.663 | 0.682 | 0.554 | 0.88
SDQPDYDSVAS [GIT2_Y392_N387S] | 0.726 | 1.29 | 0.525 | 0.499 | 0.655 | 0.729 | 1.09 | 0.594 | 1.27 | 0.565 | 0.739 | 0.625 | 0.693 | 0.735 | 0.526 | 0.783
